# Measurements: PMC10056440 (2023)
# No end group written: not given here.
# Experiments:
# [1] = target: mKate2-Kv1.3 M1-D52 truncated (Homo sapiens, UniProt P22001); assay: competition with AgTx2-GFP, confocal, Neuro 2A cells
# [2] = target: KcsA-Kv1.3 pore blocker binding site (Homo sapiens, UniProt P22001); assay: competition with AgTx2-GFP, confocal, spheroplasts
# [3] = target: KcsA-Kv1.1 pore blocker binding site (Homo sapiens, UniProt Q09470); assay: competition with AgTx2-GFP, confocal, spheroplasts
# KcsA-Kv1.1 pore blocker binding site, sequence (Q09470 348-381): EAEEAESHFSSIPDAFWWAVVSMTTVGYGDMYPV
# [4] = target: KcsA-Kv1.6 pore blocker binding site (Homo sapiens, UniProt P17658); assay: competition with AgTx2-GFP, confocal, spheroplasts
# KcsA-Kv1.6 pore blocker binding site, sequence (P17658 398-431): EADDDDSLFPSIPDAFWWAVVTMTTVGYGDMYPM
# KcsA-Kv1.3 pore blocker binding site, sequence (P22001 420-453): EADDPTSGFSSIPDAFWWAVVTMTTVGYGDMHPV
# mKate2-Kv1.3 M1-D52 truncated, sequence (P22001 53-575): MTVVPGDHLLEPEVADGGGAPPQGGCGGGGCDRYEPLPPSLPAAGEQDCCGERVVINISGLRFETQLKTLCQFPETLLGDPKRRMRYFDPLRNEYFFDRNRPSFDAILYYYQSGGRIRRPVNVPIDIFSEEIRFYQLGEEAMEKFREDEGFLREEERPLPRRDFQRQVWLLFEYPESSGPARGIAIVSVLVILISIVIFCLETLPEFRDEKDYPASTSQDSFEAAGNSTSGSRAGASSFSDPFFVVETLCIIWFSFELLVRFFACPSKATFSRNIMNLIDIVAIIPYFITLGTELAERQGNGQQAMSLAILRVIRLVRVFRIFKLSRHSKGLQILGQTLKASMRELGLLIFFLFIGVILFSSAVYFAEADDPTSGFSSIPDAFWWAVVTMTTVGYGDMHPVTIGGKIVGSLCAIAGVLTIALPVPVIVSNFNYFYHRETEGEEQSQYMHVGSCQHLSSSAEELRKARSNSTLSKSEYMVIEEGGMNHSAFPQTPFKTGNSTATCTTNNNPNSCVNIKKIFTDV
binder,measurement,setting,value
"GVPINVSCTGSPQCIKPCKDAGMRFGKCMNRKCHCTPK (ends and bridges not checked; cysteine pairing not given here) [AgTx2, listing 1 of 4 here]",Ki,[1],0.7 nM
"GVPINVSCTGSPQCIKPCKDAGMRFGKCMNRKCHCTPK (ends and bridges not checked; cysteine pairing not given here) [AgTx2, listing 2 of 4 here]",Ki,[2],0.039 nM
"GVEINVKCSGSPQCLKPCKDAGMRFGKCMNRKCHCTPK (ends and bridges not checked; cysteine pairing not given here) [KTx1, listing 1 of 3 here]",Ki,[2],0.032 nM
"GVPINVSCTGSPQCIKPCKDAGMRFGKCMNRKCHCTPK (ends and bridges not checked; cysteine pairing not given here) [AgTx2, listing 3 of 4 here]",Ki,[3],3.7 nM
"GVEINVKCSGSPQCLKPCKDAGMRFGKCMNRKCHCTPK (ends and bridges not checked; cysteine pairing not given here) [KTx1, listing 2 of 3 here]",Ki,[4],0.016 nM
"GVEINVKCSGSPQCLKPCKDAGMRFGKCMNRKCHCTPK (ends and bridges not checked; cysteine pairing not given here) [KTx1, listing 3 of 3 here]",Ki,[3],3.8 nM
"GVPINVSCTGSPQCIKPCKDAGMRFGKCMNRKCHCTPK (ends and bridges not checked; cysteine pairing not given here) [AgTx2, listing 4 of 4 here]",Ki,[4],0.027 nM
